Ends that are not written are not given here.
T1: BSA-Compound 1 (human CCR4 extracellular region peptide Compound 1 conjugated with BSA) (human, also: conjugated to BSA through SMCC, site not given here)
T1 construct: the claims speak of positions 13 to 29; ELISA antigen; also called CCR4 partial peptide
T1 peptide: DESIYSNYYLYESIPKPC


Biological target: T1, BSA-Compound 1 (human CCR4 …)
Assay: ELISA on BSA-Compound 1, COS-7 culture supernatant
Procedure: Into a 96 well ELISA plate (manufactured by Greiner), 0.05 μg/ml of the prepared conjugate was dispensed in at 50 μl/well and allowed to stand at 4° C. overnight for adsorption. After washing with PBS, PBS containing 1% BSA (hereinafter referred to as “1% BSA-PBS”) was added thereto at 100 μl/well and allowed to react at room temperature for 1 hour to block the remaining active groups. After washing each well with PBS containing 0.05% Tween 20 (hereinafter referred to as “Tween-PBS”), a culture supernatant of the transformant was added at 50 μl/well and allowed to react at room temperature for 1 hour. After the reaction and subsequent washing of each well with Tween-PBS, a peroxidase-labeled goat anti-human IgG(γ) antibody solution (manufactured by American Qualex) diluted 6,000 folds with 1% BSA-PBS was added as a secondary antibody solution in 50 μl/well portions and allowed to react at room temperature for 1 hour After the reaction and subsequent washing with Tween-PBS, an ABTS substrate solution (a solution prepared by dissolving 0.55 g of […] ammonium in 1 liter of 0.1 M citrate buffer (pH 4.2) and adding 1 μl/ml hydrogen peroxide just before use) was added at 50 μl/well to develop color, and the reaction was stopped 20 minutes thereafter by adding 5% SDS solution at 50 μl/well. Thereafter, absorbance at 415 nm was measured.

Row | binding result | Binder
1 | binds | anti-CCR4 CDR-grafted antibody HV2LV0 (antibody, human IgG1, V domains shown, Tested as COS-7 culture supernatant only; also called pKM2160HV2LV0) VH: EVQLVESGGGLVQPGGSLRLSCAASGFTFSNYGMSWVRQAPGKGLEWVSTISSASTYSYYPDSVKGRFTISRDNSKNTLYLQMNSLRAEDTAVYYCGRHSDGNFAFGYWGQGTLVTVSS VL: DIVMTQSPLSLPVTPGEPASISCRSSRNIVHINGDTYLEWYLQKPGQSPQLLIYKVSNRFSGVPDRFSGSGSGTDFTLKISRVEAEDVGVYYCFQGSLLPWTFGQGTKVEIK
2 | binds | anti-CCR4 CDR-grafted antibody HV0LV0 (antibody, human IgG1, V domains shown, Tested as COS-7 culture supernatant only; also called pKM2160HV0LV0) VH: EVQLVESGGGLVQPGGSLRLSCAASGFTFSNYGMSWVRQAPGKGLEWVSTISSASTYSYYPDSVKGRFTISRDNSKNTLYLQMNSLRAEDTAVYYCARHSDGNFAFGYWGQGTLVTVSS VL: DIVMTQSPLSLPVTPGEPASISCRSSRNIVHINGDTYLEWYLQKPGQSPQLLIYKVSNRFSGVPDRFSGSGSGTDFTLKISRVEAEDVGVYYCFQGSLLPWTFGQGTKVEIK
3 | binds | anti-CCR4 CDR-grafted antibody Ga10LV2 (antibody, human IgG1, V domains shown, Tested as COS-7 culture supernatant only; also called pKM2160Ga10LV2) VH: EVQLVESGGDLVQPGRSLRLSCAASGFIFSNYGMSWVRQAPGKGLEWVATISSASTYSYYPDSVKGRFTISRDNAKNSLYLQMNSLRVEDTALYYCARHSDGNFAFGYWGQGTLVTVSS VL: DILMTQSPLSLPVTPGEPASISCRSSRNIVHINGDTYLEWYLQKPGQSPQLLIYKVSNRFSGVPDRFSGSGSGTDFTLKISRVEAEDVGVYYCFQGSLLPWTFGQGTKVEIK
4 | binds | anti-CCR4 CDR-grafted antibody HV3LV0 (antibody, human IgG1, V domains shown, Tested as COS-7 culture supernatant only; also called pKM2160HV3LV0) VH: EVQLVESGGGLVQPGGSLRLSCAASGFIFSNYGMSWVRQAPGKGLEWVSTISSASTYSYYPDSVKGRFTISRDNSKNTLYLQMNSLRAEDTAVYYCGRHSDGNFAFGYWGQGTLVTVSS VL: DIVMTQSPLSLPVTPGEPASISCRSSRNIVHINGDTYLEWYLQKPGQSPQLLIYKVSNRFSGVPDRFSGSGSGTDFTLKISRVEAEDVGVYYCFQGSLLPWTFGQGTKVEIK
5 | binds | anti-CCR4 CDR-grafted antibody HV3LV3 (antibody, human IgG1, V domains shown, Tested as COS-7 culture supernatant only; also called pKM2160HV3LV 3) VH: EVQLVESGGGLVQPGGSLRLSCAASGFIFSNYGMSWVRQAPGKGLEWVSTISSASTYSYYPDSVKGRFTISRDNSKNTLYLQMNSLRAEDTAVYYCGRHSDGNFAFGYWGQGTLVTVSS VL: DVLMTQSPLSLPVTPGEPASISCRSSRNIVHINGDTYLEWYLQKPGQSPQLLIYKVSNRFSGVPDRFSGSGSGTDFTLKISRVEAEDVGVYYCFQGSLLPWTFGQGTKVEIK
6 | binds | anti-CCR4 CDR-grafted antibody HV0LV3 (antibody, human IgG1, V domains shown, Tested as COS-7 culture supernatant only; also called pKM2160HV0LV3) VH: EVQLVESGGGLVQPGGSLRLSCAASGFTFSNYGMSWVRQAPGKGLEWVSTISSASTYSYYPDSVKGRFTISRDNSKNTLYLQMNSLRAEDTAVYYCARHSDGNFAFGYWGQGTLVTVSS VL: DVLMTQSPLSLPVTPGEPASISCRSSRNIVHINGDTYLEWYLQKPGQSPQLLIYKVSNRFSGVPDRFSGSGSGTDFTLKISRVEAEDVGVYYCFQGSLLPWTFGQGTKVEIK
7 | binds | anti-CCR4 CDR-grafted antibody HV0LV1 (antibody, human IgG1, V domains shown, Tested as COS-7 culture supernatant only; also called pKM2160HV0LV1) VH: EVQLVESGGGLVQPGGSLRLSCAASGFTFSNYGMSWVRQAPGKGLEWVSTISSASTYSYYPDSVKGRFTISRDNSKNTLYLQMNSLRAEDTAVYYCARHSDGNFAFGYWGQGTLVTVSS VL: DVVMTQSPLSLPVTPGEPASISCRSSRNIVHINGDTYLEWYLQKPGQSPQLLIYKVSNRFSGVPDRFSGSGSGTDFTLKISRVEAEDVGVYYCFQGSLLPWTFGQGTKVEIK

Source: patent publication US20030175273A1 (Kyowa Kirin, published 2003)
